# System: Escherichia coli TOP10
# Assay: shrunken log2 fold change of peptide-encoding DNA abundance (4.5 h post-induction vs induction); higher = less antimicrobial activity (less host growth inhibition)
# Settings: time post-induction: 4.5 h; library: site-saturation at positions 5, 18, 19, 20
# 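Further: peptides expressed intracellularly from a pBAD plasmid library in pooled LB shake-flask culture, induced with 0.3% L-arabinose, DNA abundance read by NGS, three biological replicates, DESeq2 with apeglm shrinkage.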
row,Sequence,shrunken log2 fold change
1,RRIRYRPPRLPRPRPRPQFCPRP,-0.0677
2,RRIRYRPPRLPRPRPRPQFLPRP,-0.132
3,RRIRYRPPRLPRPRPRPQFRPRP,-0.18
4,RRIRYRPPRLPRPRPRPQIAPRP,-0.242
5,RRIRYRPPRLPRPRPRPQKMPRP,-0.295
6,RRIRYRPPRLPRPRPRPQLDPRP,-0.555
7,RRIRYRPPRLPRPRPRPQPEPRP,0.239
8,RRIRYRPPRLPRPRPRPQPSPRP,0.0385
9,RRIRYRPPRLPRPRPRPQPWPRP,-0.149
10,RRIRYRPPRLPRPRPRPQRNPRP,-0.758
11,RRIRYRPPRLPRPRPRPQTAPRP,-0.0183
12,RRIRYRPPRLPRPRPRPQTWPRP,-0.573
13,RRIRYRPPRLPRPRPRPQVGPRP,-0.0385
14,RRIRYRPPRLPRPRPRPQVPPRP,-0.124
15,RRIRYRPPRLPRPRPRPRCKPRP,-0.573
16,RRIRYRPPRLPRPRPRPRCSPRP,-0.173
17,RRIRYRPPRLPRPRPRPRDCPRP,-0.137
18,RRIRYRPPRLPRPRPRPRDMPRP,-0.339
19,RRIRYRPPRLPRPRPRPRFMPRP,-0.323
20,RRIRYRPPRLPRPRPRPRFWPRP,0.184
21,RRIRYRPPRLPRPRPRPRIFPRP,-0.603
22,RRIRYRPPRLPRPRPRPRITPRP,-0.382
23,RRIRYRPPRLPRPRPRPRIYPRP,-0.569
24,RRIRYRPPRLPRPRPRPRKPPRP,0.0457

row,Sequence,shrunken log2 fold change
1,RRIRYRPPRLPRPRPRPRLFPRP,-0.194
2,RRIRYRPPRLPRPRPRPRLMPRP,-0.0571
3,RRIRYRPPRLPRPRPRPRLYPRP,-0.247
4,RRIRYRPPRLPRPRPRPRPAPRP,0.393
5,RRIRYRPPRLPRPRPRPRSAPRP,-0.0647
6,RRIRYRPPRLPRPRPRPRSNPRP,0.00328
7,RRIRYRPPRLPRPRPRPRTGPRP,-0.0225
8,RRIRYRPPRLPRPRPRPRTNPRP,-0.492
9,RRIRYRPPRLPRPRPRPRWLPRP,-0.109
10,RRIRYRPPRLPRPRPRPRWTPRP,0.2
11,RRIRYRPPRLPRPRPRPSAYPRP,-0.854
12,RRIRYRPPRLPRPRPRPSDIPRP,-0.0657
13,RRIRYRPPRLPRPRPRPSDNPRP,-0.827
14,RRIRYRPPRLPRPRPRPSDSPRP,-0.191
15,RRIRYRPPRLPRPRPRPSENPRP,-0.235
16,RRIRYRPPRLPRPRPRPSGCPRP,-0.264
17,RRIRYRPPRLPRPRPRPSGLPRP,-0.078
18,RRIRYRPPRLPRPRPRPSKPPRP,-0.833
19,RRIRYRPPRLPRPRPRPSMMPRP,-1.21
20,RRIRYRPPRLPRPRPRPSMRPRP,-0.634
21,RRIRYRPPRLPRPRPRPSMVPRP,-0.858
22,RRIRYRPPRLPRPRPRPSNCPRP,-0.107
23,RRIRYRPPRLPRPRPRPSNVPRP,-1.01
24,RRIRYRPPRLPRPRPRPSNWPRP,-0.385

row,Sequence,shrunken log2 fold change
1,RRIRYRPPRLPRPRPRPSPHPRP,-0.49
2,RRIRYRPPRLPRPRPRPSPSPRP,-0.269
3,RRIRYRPPRLPRPRPRPSSVPRP,-0.425
4,RRIRYRPPRLPRPRPRPSVNPRP,-0.177
5,RRIRYRPPRLPRPRPRPSVRPRP,-0.301
6,RRIRYRPPRLPRPRPRPSWMPRP,-0.534
7,RRIRYRPPRLPRPRPRPSWPPRP,-0.613
8,RRIRYRPPRLPRPRPRPSYHPRP,-1.21
9,RRIRYRPPRLPRPRPRPTAIPRP,-0.774
10,RRIRYRPPRLPRPRPRPTDEPRP,-0.00133
11,RRIRYRPPRLPRPRPRPTDGPRP,-0.0848
12,RRIRYRPPRLPRPRPRPTDQPRP,-0.175
13,RRIRYRPPRLPRPRPRPTEWPRP,-0.0714
14,RRIRYRPPRLPRPRPRPTFPPRP,-0.279
15,RRIRYRPPRLPRPRPRPTGCPRP,-0.0275
16,RRIRYRPPRLPRPRPRPTGVPRP,-0.0415
17,RRIRYRPPRLPRPRPRPTGWPRP,0.088
18,RRIRYRPPRLPRPRPRPTIAPRP,-0.338
19,RRIRYRPPRLPRPRPRPTIKPRP,-0.151
20,RRIRYRPPRLPRPRPRPTKMPRP,-0.22
21,RRIRYRPPRLPRPRPRPTMGPRP,0.0568
22,RRIRYRPPRLPRPRPRPTNDPRP,-0.404
23,RRIRYRPPRLPRPRPRPTNSPRP,-0.342
24,RRIRYRPPRLPRPRPRPTQKPRP,-0.0476

row,Sequence,shrunken log2 fold change
1,RRIRYRPPRLPRPRPRPTRKPRP,0.00746
2,RRIRYRPPRLPRPRPRPTRMPRP,0.09
3,RRIRYRPPRLPRPRPRPTSGPRP,0.0452
4,RRIRYRPPRLPRPRPRPTTMPRP,-0.722
5,RRIRYRPPRLPRPRPRPVASPRP,-0.163
6,RRIRYRPPRLPRPRPRPVCQPRP,-0.181
7,RRIRYRPPRLPRPRPRPVDLPRP,0.0483
8,RRIRYRPPRLPRPRPRPVDRPRP,-0.126
9,RRIRYRPPRLPRPRPRPVEFPRP,-1.06
10,RRIRYRPPRLPRPRPRPVFVPRP,-0.458
11,RRIRYRPPRLPRPRPRPVGVPRP,-0.0394
12,RRIRYRPPRLPRPRPRPVIIPRP,-0.156
13,RRIRYRPPRLPRPRPRPVIKPRP,-0.585
14,RRIRYRPPRLPRPRPRPVIMPRP,-0.222
15,RRIRYRPPRLPRPRPRPVISPRP,0.0433
16,RRIRYRPPRLPRPRPRPVLWPRP,0.0894
17,RRIRYRPPRLPRPRPRPVNAPRP,-0.361
18,RRIRYRPPRLPRPRPRPVNGPRP,-0.338
19,RRIRYRPPRLPRPRPRPVNNPRP,-1.68
20,RRIRYRPPRLPRPRPRPVPKPRP,0.0938
21,RRIRYRPPRLPRPRPRPVPYPRP,-0.0727
22,RRIRYRPPRLPRPRPRPVQEPRP,-0.149
23,RRIRYRPPRLPRPRPRPVSSPRP,-0.272
24,RRIRYRPPRLPRPRPRPVSVPRP,-0.0879

row,Sequence,shrunken log2 fold change
1,RRIRYRPPRLPRPRPRPVVCPRP,-0.408
2,RRIRYRPPRLPRPRPRPVVVPRP,0.00571
3,RRIRYRPPRLPRPRPRPVYGPRP,-0.0722
4,RRIRYRPPRLPRPRPRPVYIPRP,-1.27
5,RRIRYRPPRLPRPRPRPVYRPRP,-0.158
6,RRIRYRPPRLPRPRPRPWAMPRP,-0.00232
7,RRIRYRPPRLPRPRPRPWANPRP,-0.176
8,RRIRYRPPRLPRPRPRPWDPPRP,-0.0966
9,RRIRYRPPRLPRPRPRPWEYPRP,-0.142
10,RRIRYRPPRLPRPRPRPWFCPRP,-0.0679
11,RRIRYRPPRLPRPRPRPWHHPRP,-0.271
12,RRIRYRPPRLPRPRPRPWHTPRP,-1.52
13,RRIRYRPPRLPRPRPRPWICPRP,-0.593
14,RRIRYRPPRLPRPRPRPWIQPRP,-0.101
15,RRIRYRPPRLPRPRPRPWKIPRP,-0.245
16,RRIRYRPPRLPRPRPRPWLCPRP,-0.0909
17,RRIRYRPPRLPRPRPRPWQVPRP,-0.09
18,RRIRYRPPRLPRPRPRPWRHPRP,-0.116
19,RRIRYRPPRLPRPRPRPWRKPRP,-0.296
20,RRIRYRPPRLPRPRPRPWVCPRP,-0.0275
21,RRIRYRPPRLPRPRPRPWVLPRP,-0.223
22,RRIRYRPPRLPRPRPRPWYHPRP,-0.0547
23,RRIRYRPPRLPRPRPRPYADPRP,-0.136
24,RRIRYRPPRLPRPRPRPYAQPRP,-1.36

row,Sequence,shrunken log2 fold change
1,RRIRYRPPRLPRPRPRPYDGPRP,-0.155
2,RRIRYRPPRLPRPRPRPYDPPRP,-0.325
3,RRIRYRPPRLPRPRPRPYETPRP,0.112
4,RRIRYRPPRLPRPRPRPYFAPRP,-0.796
5,RRIRYRPPRLPRPRPRPYFNPRP,-1.33
6,RRIRYRPPRLPRPRPRPYGNPRP,-0.00695
7,RRIRYRPPRLPRPRPRPYISPRP,-0.00213
8,RRIRYRPPRLPRPRPRPYLMPRP,-0.254
9,RRIRYRPPRLPRPRPRPYLNPRP,-0.802
10,RRIRYRPPRLPRPRPRPYMSPRP,-0.00192
11,RRIRYRPPRLPRPRPRPYPNPRP,-0.36
12,RRIRYRPPRLPRPRPRPYPVPRP,0.011
13,RRIRYRPPRLPRPRPRPYQLPRP,-0.00146
14,RRIRYRPPRLPRPRPRPYQVPRP,-0.289
15,RRIRYRPPRLPRPRPRPYRGPRP,-0.765
16,RRIRYRPPRLPRPRPRPYRHPRP,-1.4
17,RRIRYRPPRLPRPRPRPYSFPRP,-0.106
18,RRIRYRPPRLPRPRPRPYSWPRP,-0.156
19,RRIRYRPPRLPRPRPRPYTVPRP,-0.00544
20,RRIRYRPPRLPRPRPRPYWMPRP,-0.686
21,RRIRYRPPRLPRPRPRPYYVPRP,0.0372
